Results on 6 sequences are retold here after the supplement of paper PMC5998384.

In data set [1] the test system is HeLa Kyoto. Kind of data set: solubility change mitosis vs G1/S (difference of NP-40 vs SDS log2 ratios) (log2 ratio difference); higher = more soluble in mitosis.
The subject of data set [2] is HeLa Kyoto. Kind of data set: melting temperature (median over replicates), in situ; higher = more thermally stable.
Data set [3] relates to HeLa Kyoto. Kind of data set: thermal stability score vs G1/S (z-score of summed log2 fold changes over temperatures); higher = more thermally stable than in G1/S.
Data set [4] concerns HeLa Kyoto. Kind of data set: solubility in G1/S (NP-40 vs SDS abundance) (log2 ratio); higher = more soluble. As to conditions: cell cycle stage: G1/S.
[5] abbreviates: cell cycle stage: early G1 (4.5 h after nocodazole release).
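Wherever melting temperature (median over replicates), in situ is given: HeLa Kyoto cells synchronized by double thymidine or nocodazole block, proteins quantified by TMT10plex mass spectrometry, three independent biological replicates.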
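Wherever solubility change mitosis vs G1/S (difference of NP-40 vs SDS log2 ratios) is given: synchronized HeLa Kyoto cells (double thymidine block for G1/S, nocodazole release for mitosis), protein amounts in NP-40 versus SDS lysates quantified by mass spectrometry, three biological replicates.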
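Wherever solubility in G1/S (NP-40 vs SDS abundance) is given: HeLa Kyoto cells arrested at G1/S by double thymidine block, proteins quantified by TMT10plex mass spectrometry in mild NP-40 versus SDS extracts, three biological replicates.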
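Wherever thermal stability score vs G1/S (z-score of summed log2 fold changes over temperatures) is given: synchronized HeLa Kyoto cells, proteins quantified by TMT10plex mass spectrometry, three biological replicates, mitosis taken 0.5 h after nocodazole release, G1/S directly after double thymidine block.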

“MAAEVYFGDLELFEPFDHPEESIPKPVHTRFKDDDGDEEDENGVGDAELRERLRQCEETIEQLRAENQELKRKLNILTRPSGILVNDTKLDGPILQILFMNNAISKQYHQEIEEFVSNLVKRFEEQQKNDVEKTSFNLLPQPSSIVLEEDHKVEESCAIKNNKEAFSVVGSVLYFTNFCLDKLGQPLLNENPQLSEGWEIPKYHQVFSHIVSLEGQEIQVKAKRPKPHCFNCGSEEHQMKDCPMPRNAARISEKRKEYMDACGEANNQNFQQRYHAEEVEERFGRFKPGVISEELQDALGVTDKSLPPFIYRMRQLGYPPGWLKEAELENSGLALYDGKDGTDGETEVGEIQQNKSVTYDLSKLVNYPGFNISTPRGIPDEWRIFGSIPMQACQQKDVFANYLTSNFQAPGVKSGNKRSSSHSSPGSPKKQKNESNSAGSPADMELDSDMEVPHGSQSSESFQFQPPLPPDTPPLPRGTPPPVFTPPLPKGTPPLTPSDSPQTRTASGAVDEDALTLEELEEQQRRIWAALEQAESVNSDSDVPVDTPLTGNSVASSPCPNELDLPVPEGKTSEKQTLDEPEVPEIFTKKSEAGHASSPDSEVTSLCQKEKAELAPVNTEGALLDNGSVVPNCDISNGGSQKLFPADTSPSTATKIHSPIPDMSKFATGITPFEFENMAESTGMYLRIRSLLKNSPRNQQKNKKASE [ZCCHC8]”: in data set [1], the “solubility change mitosis (log2)” value is -0.117. The melting temperature turned out to be 51 °C in data set [2] (cell cycle stage: G1/S) and 52.4 °C in data set [2] (cell cycle stage: mitosis). In addition, the thermal stability score in data set [3] (setting [5]) came to 0.273; in data set [3] (cell cycle stage: mitosis), 0.547. The “solubility in G1/S (log2)” value in data set [4] was determined as 0.0806.
On to “MAAFAVEPQGPALGSEPMMLGSPTSPKPGVNAQFLPGFLMGDLPAPVTPQPRSISGPSVGVMEMRSPLLAGGSPPQPVVPAHKDKSGAPPVRSIYDDISSPGLGSTPLTSRRQPNISVMQSPLVGVTSTPGTGQSMFSPASIGQPRKTTLSPAQLDPFYTQGDSLTSEDHLDDSWVTVFGFPQASASYILLQFAQYGNILKHVMSNTGNWMHIRYQSKLQARKALSKDGRIFGESIMIGVKPCIDKSVMESSDRCALSSPSLAFTPPIKTLGTPTQPGSTPRISTMRPLATAYKASTSDYQVISDRQTPKKDESLVSKAMEYMFGW [NUP35]”, for which the “solubility change mitosis (log2)” value in data set [1] was -0.0493. Also, the melting temperature was 52.3 °C in data set [2] (cell cycle stage: G1/S) and 52 °C in data set [2] (cell cycle stage: mitosis). In addition, the thermal stability score is -2.22 in data set [3] (setting [5]) and -0.679 in data set [3] (cell cycle stage: mitosis). Besides, the “solubility in G1/S (log2)” value in data set [4] was 0.209.
Consider “MAAFLKMSVSVNFFRPFTRFLVPFTLHRKRNNLTILQRYMSSKIPAVTYPKNESTPPSEELELDKWKTTMKSSVQEECVSTISSSKDEDPLAATREFIEMWRLLGREVPEHITEEELKTLMECVSNTAKKKYLKYLYTKEKVKKARQIKKEMKAAAREEAKNIKLLETTEEDKQKNFLFLRLWDRNMDIAMGWKGAQAMQFGQPLVFDMAYENYMKRKELQNTVSQLLESEGWNRRNVDPFHIYFCNLKIDGALHRELVKRYQEKWDKLLLTSTEKSHVDLFPKDSIIYLTADSPNVMTTFRHDKVYVIGSFVDKSMQPGTSLAKAKRLNLATECLPLDKYLQWEIGNKNLTLDQMIRILLCLKNNGNWQEALQFVPKRKHTGFLEISQHSQEFINRLKKAKT [TRMT10C]”, for which, in data set [1], the “solubility change mitosis (log2)” value was -0.114. Further, the melting temperature was found to be 51.3 °C in data set [2] (cell cycle stage: G1/S) and 51.9 °C in data set [2] (cell cycle stage: mitosis). Besides, the thermal stability score in data set [3] (setting [5]) stood at 0.276; in data set [3] (cell cycle stage: mitosis) it was 0.67. In data set [4], the “solubility in G1/S (log2)” value is -0.0196.
For the sequence “MAAGAGTAGPASGPGVVRDPAASQPRKRPGREGGEGARRSDTMAGGGGSSDGSGRAAGRRASRSSGRARRGRHEPGLGGPAERGAGEARLEEAVNRWVLKFYFHEALRAFRGSRYGDFRQIRDIMQALLVRPLGKEHTVSRLLRVMQCLSRIEEGENLDCSFDMEAELTPLESAINVLEMIKTEFTLTEAVVESSRKLVKEAAVIICIKNKEFEKASKILKKHMSKDPTTQKLRNDLLNIIREKNLAHPVIQNFSYETFQQKMLRFLESHLDDAEPYLLTMAKKALKSESAASSTGKEDKQPAPGPVEKPPREPARQLRNPPTTIGMMTLKAAFKTLSGAQDSEAAFAKLDQKDLVLPTQALPASPALKNKRPRKDENESSAPADGEGGSELQPKNKRMTISRLVLEEDSQSTEPSAGLNSSQEAASAPPSKPTVLNQPLPGEKNPKVPKGKWNSSNGVEEKETWVEEDELFQVQAAPDEDSTTNITKKQKWTVEESEWVKAGVQKYGEGNWAAISKNYPFVNRTAVMIKDRWRTMKRLGMN [TERF2]”, the “solubility change mitosis (log2)” value in data set [1] was determined as 0.0937. Moreover, the melting temperature in data set [2] (cell cycle stage: G1/S) came out at 48.9 °C; in data set [2] (cell cycle stage: mitosis), 50.3 °C. The results for the thermal stability score in data set [3] (setting [5]) and in data set [3] (cell cycle stage: mitosis) were 1.08 and 1.27, respectively. Further, the “solubility in G1/S (log2)” value in data set [4] came out at 0.0628.
Consider “MAAGGSTQQRRREMAAASAAAISGAGRCRLSKIGATRRPPPARVRVAVRLRPFVDGTAGASDPPCVRGMDSCSLEIANWRNHQETLKYQFDAFYGERSTQQDIYAGSVQPILRHLLEGQNASVLAYGPTGAGKTHTMLGSPEQPGVIPRALMDLLQLTREEGAEGRPWALSVTMSYLEIYQEKVLDLLDPASGDLVIREDCRGNILIPGLSQKPISSFADFERHFLPASRNRTVGATRLNQRSSRSHAVLLVKVDQRERLAPFRQREGKLYLIDLAGSEDNRRTGNKGLRLKESGAINTSLFVLGKVVDALNQGLPRVPYRDSKLTRLLQDSLGGSAHSILIANIAPERRFYLDTVSALNFAARSKEVINRPFTNESLQPHALGPVKLSQKELLGPPEAKRARGPEEEEIGSPEPMAAPASASQKLSPLQKLSSMDPAMLERLLSLDRLLASQGSQGAPLLSTPKRERMVLMKTVEEKDLEIERLKTKQKELEAKMLAQKAEEKENHCPTMLRPLSHRTVTGAKPLKKAVVMPLQLIQEQAASPNAEIHILKNKGRKRKLESLDALEPEEKAEDCWELQISPELLAHGRQKILDLLNEGSARDLRSLQRIGPKKAQLIVGWRELHGPFSQVEDLERVEGITGKQMESFLKANILGLAAGQRCGAS [KIF22]”, for which the “solubility change mitosis (log2)” value in data set [1] came to 0.342. Further, the melting temperature in data set [2] (cell cycle stage: G1/S) amounted to 50 °C; in data set [2] (cell cycle stage: mitosis) it was 48.2 °C. Besides, the thermal stability score was found to be 1.72 in data set [3] (setting [5]) and 2.31 in data set [3] (cell cycle stage: mitosis). The “solubility in G1/S (log2)” value in data set [4] is -0.459.
Take “MAAGKSGGSAGEITFLEALARSESKRDGGFKNNWSFDHEEESEGDTDKDGTNLLSVDEDEDSETSKGKKLNRRSEIVANSSGEFILKTYVRRNKSESFKTLKGNPIGLNMLSNNKKLSENTQNTSLCSGTVVHGRRFHHAHAQIPVVKTAAQSSLDRKERKEYPPHVQKVEINPVRLSRLQGVERIMKKTEESESQVEPEIKRKVQQKRHCSTYQPTPPLSPASKKCLTHLEDLQRNCRQAITLNESTGPLLRTSIHQNSGGQKSQNTGLTTKKFYGNNVEKVPIDIIVNCDDSKHTYLQTNGKVILPGAKIPKITNLKERKTSLSDLNDPIILSSDDDDDNDRTNRRESISPQPADSACSSPAPSTGKVEAALNENTCRAERELRSIPEDSELNTVTLPRKARMKDQFGNSIINTPLKRRKVFSQEPPDALALSCQSSFDSVILNCRSIRVGTLFRLLIEPVIFCLDFIKIQLDEPDHDPVEIILNTSDLTKCEWCNVRKLPVVFLQAIPAVYQKLSIQLQMNKEDKVWNDCKGVNKLTNLEEQYIILIFQNGLDPPANMVFESIINEIGIKNNISNFFAKIPFEEANGRLVACTRTYEESIKGSCGQKENKIKTVSFESKIQLRSKQEFQFFDEEEETGENHTIFIGPVEKLIVYPPPPAKGGISVTNEDLHCLNEGEFLNDVIIDFYLKYLVLEKLKKEDADRIHIFSSFFYKRLNQRERRNHETTNLSIQQKRHGRVKTWTRHVDIFEKDFIFVPLNEAAHWFLAVVCFPGLEKPKYEPNPHYHENAVIQKCSTVEDSCISSSASEMESCSQNSSAKPVIKKMLNKKHCIAVIDSNPGQEESDPRYKRNICSVKYSVKKINHTASENEEFNKGESTSQKVADRTKSENGLQNESLSSTHHTDGLSKIRLNYSDESPEAGKMLEDELVDFSEDQDNQDDSSDDGFLADDNCSSEIGQWHLKPTICKQPCILLMDSLRGPSRSNVVKILREYLEVEWEVKKGSKRSFSKDVMKGSNPKVPQQNNFSDCGVYVLQYVESFFENPILSFELPMNLANWFPPPRMRTKREEIRNIILKLQEDQSKEKRKHKDTYSTEAPLGEGTEQYVNSISD [SENP6]”: the “solubility change mitosis (log2)” value in data set [1] was found to be 0.144. Moreover, the melting temperature in data set [2] (cell cycle stage: G1/S) is 51.8 °C; in data set [2] (cell cycle stage: mitosis), 52.5 °C. In addition, the figures for the thermal stability score in data set [3] (setting [5]) and in data set [3] (cell cycle stage: mitosis) were -0.65 and 0.269, respectively. Further, in data set [4], the “solubility in G1/S (log2)” value is -0.261.
